The values below come from patent US20030165489A1.

Data set [1] concerns the target T1, SP (substance P) (UniProt P20366).
T1 sequence: RPKPQQFFGLM

The target of data set [2] is SP (substance P) (UniProt P20366). Kind of data set: cell-based or functional assay.

As to “Recombinant dipeptidyl peptidase IV (DPPIV), soluble form secreted from Aspergilus Fumigatus”, the “degradation of SP identified by mass-spectrometry” value in data set [1] was “SP (1.8 µg) co-incubated with 0.016 µg of DPPIV for ten minutes at 37 °C is degraded to SP5-11”.
In data set [2], “Recombinant dipeptidyl peptidase IV (DPPIV), soluble form secreted from Aspergilus Fumigatus (enzyme)” yielded a diminution of SP-evoked vasodilatory response (100 pg SP, pig in vivo, after 50 µg DPPIV) of 66% and a diminution of SP-evoked vasodilatory response (1 ng SP, pig in vivo, after 50 µg DPPIV) of 71%.
